Assay results from patent publication US20020018783A1.

Target: endogenous CD28 (human, on Jurkat cells and primary T lymphocytes) (human) (UniProt P10747)
Test: cell-based or functional assay

% of dead cells, 3G6-CD28 transduced T lymphocytes, OKT3/28.2, day 3 (trypan blue): 10% | % of dead cells, NTP transduced T lymphocytes, OKT3/28.2, day 6 (trypan blue): 15% | IL-2 secretion with PMA and ionomycin (ELISA, 24 hours), Jurkat-NTP: 960 pg/mL | IL-2 secretion with PMA and ionomycin (ELISA, 24 hours), both cell populations: 3 fold
Substance: anti-CD28 Mab 28.2 (antibody)
